This is an account of results in publication PMC3470569, “Probing Subunit-Subunit Interactions in the Yeast Vacuolar ATPase by Peptide Arrays” (PLoS ONE, 2012).

What all share (test): peptide or protein array; 20-mer peptides linked at their C-terminal end to cellulose and spotted in duplicate on glass slides; blocked in 2% nonfat milk; purified probe at 4 µM in TBS for 1 hour at 4°C; bound probe detected through MBP or FLAG with HRP-coupled antibody (chemiluminescence); hits by ANOVA (p 0.05, Bonferroni) and HCL in MeV, score of at least 1 in 75% of the spots
Common to all, as to conditions: both partners purified

Assay [1] concerns the target T1, C-terminal domain of subunit H (HCT), N-terminal MBP fusion (S. cerevisiae, UniProt P41807 353-478).
T1 construct: V-ATPase subunit H (Vma13p), S. cerevisiae, C-terminal globular domain 353-478 (126 amino acids); Construct provided by the laboratory of Dr. Patricia Kane; also called MBP-HCT; source: E. coli, purified (amylose column; ultrafiltration or size exclusion chromatography); not shown: MBP, N-terminal, kept
T1 sequence (looked up): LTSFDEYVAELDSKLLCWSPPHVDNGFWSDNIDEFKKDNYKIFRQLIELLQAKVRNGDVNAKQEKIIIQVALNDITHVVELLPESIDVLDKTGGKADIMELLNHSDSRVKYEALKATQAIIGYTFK

Assay [2] addresses T2, full-length subunit H (Vma13p), N-terminal MBP fusion (S. cerevisiae, UniProt P41807 1-478).
T2 construct: V-ATPase subunit H (Vma13p), S. cerevisiae, 478 amino acids; Construct provided by the laboratory of Dr. Patricia Kane; also called MBP-H; source: E. coli, purified (amylose column; ultrafiltration or size exclusion chromatography); not shown: MBP, N-terminal, kept
T2 sequence (looked up): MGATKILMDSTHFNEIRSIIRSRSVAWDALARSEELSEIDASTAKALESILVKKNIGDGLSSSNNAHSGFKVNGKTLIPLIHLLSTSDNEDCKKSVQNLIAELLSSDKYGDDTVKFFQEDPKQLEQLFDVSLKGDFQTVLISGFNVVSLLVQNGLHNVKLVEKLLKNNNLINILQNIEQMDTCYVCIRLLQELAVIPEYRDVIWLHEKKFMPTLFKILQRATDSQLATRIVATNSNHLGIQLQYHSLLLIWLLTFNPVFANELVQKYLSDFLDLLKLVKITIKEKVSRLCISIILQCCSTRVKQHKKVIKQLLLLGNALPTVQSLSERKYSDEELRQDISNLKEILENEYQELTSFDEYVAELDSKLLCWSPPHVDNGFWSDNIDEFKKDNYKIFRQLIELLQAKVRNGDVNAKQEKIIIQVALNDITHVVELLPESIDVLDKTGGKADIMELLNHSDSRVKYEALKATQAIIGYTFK

The target in assay [3] is T3, subunit E (Vma4p), N-terminal MBP fusion (S. cerevisiae, UniProt P22203 1-233).
T3 construct: V-ATPase subunit E (Vma4p), S. cerevisiae, 233 amino acids; also called MBP-E; source: E. coli, purified (amylose column); not shown: MBP, N-terminal, kept
T3 sequence (looked up): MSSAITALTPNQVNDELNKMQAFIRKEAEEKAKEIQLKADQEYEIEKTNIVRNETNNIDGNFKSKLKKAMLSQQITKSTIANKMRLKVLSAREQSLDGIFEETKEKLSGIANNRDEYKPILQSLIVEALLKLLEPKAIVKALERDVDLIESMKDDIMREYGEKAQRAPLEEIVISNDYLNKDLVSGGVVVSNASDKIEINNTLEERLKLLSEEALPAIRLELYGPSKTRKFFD

The target in assay [4] is T4, subunit G (Vma10p) with FLAG tag (S. cerevisiae, UniProt P48836 1-114).
T4 construct: V-ATPase subunit G (Vma10p), S. cerevisiae, 114 amino acids; also called G-FLAG; FLAG-G; source: E. coli, from the bicistronic MBP-FLAG-G / E construct, purified (amylose, PreScission cleavage of MBP, DEAE, amylose); not shown: MBP, N-terminal, cleaved
T4 sequence (looked up): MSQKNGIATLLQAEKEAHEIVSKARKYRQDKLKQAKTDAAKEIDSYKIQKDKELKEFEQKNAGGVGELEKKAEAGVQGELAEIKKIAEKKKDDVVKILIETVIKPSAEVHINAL

Assay [5] concerns the target T5, EG heterodimer (untagged subunit E with FLAG-tagged subunit G) (S. cerevisiae, UniProt P22203 1-233; P48836 1-114).
T5 construct: V-ATPase subunit E (Vma4p), S. cerevisiae, tagless; V-ATPase subunit G (Vma10p), S. cerevisiae; also called EG-FLAG; source: E. coli, co-expressed from one bicistronic plasmid, purified (amylose, PreScission cleavage of MBP, DEAE, amylose); not shown: MBP, N-terminal, cleaved; FLAG, N-terminal, kept
T5 sequence (looked up) 1: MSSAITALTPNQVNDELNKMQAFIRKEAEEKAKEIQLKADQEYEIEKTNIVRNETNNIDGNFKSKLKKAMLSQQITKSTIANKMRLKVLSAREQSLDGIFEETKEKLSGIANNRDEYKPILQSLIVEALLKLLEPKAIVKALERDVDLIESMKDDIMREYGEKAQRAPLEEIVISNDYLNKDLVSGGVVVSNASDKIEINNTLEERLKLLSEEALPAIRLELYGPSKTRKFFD
T5 sequence (looked up) 2: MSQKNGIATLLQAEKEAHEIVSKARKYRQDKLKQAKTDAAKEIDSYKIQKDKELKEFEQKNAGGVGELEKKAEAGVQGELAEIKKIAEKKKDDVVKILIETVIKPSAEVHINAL

Ends that are not written are not given here. cellulose = not defined here

B1: C(321-340) (peptide, UniProt P31412 321-340, looked up)
peptide: LPPHFNIKIIAVPPKNLSKC-cellulose
modifications: reading uncertain
notes: source: synthetic peptide, spotted on glass slide array (Intavis)
Consider B1, for which the binding result in assay [1] and in assay [2] was “binds” each time.

B2: d(261-280) (peptide, UniProt P32366 261-280, looked up)
peptide: DFEGVRAALANVYEYRGFLE-cellulose
modifications: reading uncertain
notes: as for B1
Consider B2, for which, in assay [3], the binding result is “binds”.

B3: H(221-240) (peptide, UniProt P41807 221-240, looked up)
peptide: ATDSQLATRIVATNSNHLGI-cellulose
modifications: reading uncertain
notes: as for B1
Regarding B3, the binding result in assay [1] and in assay [4] was “binds” each time.

B4: D(161-180) (peptide, UniProt P32610 161-180, looked up)
peptide: EVIKVTNRRVNAIEHVIIPR-cellulose
modifications: reading uncertain
notes: as for B1
B4: the binding result in assay [4] is recorded as “binds”.

B5: d(51-70) (peptide, UniProt P32366 51-70, looked up)
peptide: YGNFLSSVSSESLTTSLIQE-cellulose
modifications: reading uncertain
notes: V-ATPase Vo subunit d, S. cerevisiae, residues 51-70; source: synthetic peptide, spotted on glass slide array (Intavis)
Regarding B5, the binding result in assay [2] and in assay [3] was “binds” throughout.

B6: a(131-150) (peptide, UniProt P32563 131-150, looked up)
peptide: IEVQKNDLEQYRFILQSGDE-cellulose
modifications: reading uncertain
notes: as for B1
Turning to B6, the binding result in assay [3] was “binds”.

B7: a(371-390) (peptide, UniProt P32563 371-390, looked up)
peptide: LDTNHTPPTFHRTNKFTAGF-cellulose
modifications: reading uncertain
notes: as for B1
Take B7: the binding result in assay [1] and in assay [4] was “binds” each time.

B8: a(41-60) (peptide, UniProt P32563 41-60, looked up)
peptide: FRDLNSKVRAFQRTFVNEIR-cellulose
modifications: reading uncertain
notes: V-ATPase Vo subunit a (gene Vph1), S. cerevisiae, residues 41-60; source: synthetic peptide, spotted on glass slide array (Intavis)
On to B8, for which the binding result in assay [1] and in assay [2] was “binds” in each case.

B9: d(21-40) (peptide, UniProt P32366 21-40, looked up)
peptide: RNGLLSNNQYINLTQCDTLE-cellulose
modifications: reading uncertain
notes: V-ATPase Vo subunit d, S. cerevisiae, residues 21-40; source: synthetic peptide, spotted on glass slide array (Intavis)
As for B9, the binding result in assay [2] and in assay [3] was “binds” throughout.

B10: a(291-310) (peptide, UniProt P32563 291-310, looked up)
peptide: TSTTLESELYAIAKELDSWF-cellulose
modifications: reading uncertain
notes: as for B1
For B10, the binding result in assay [5] is recorded as “binds”.

B11: H(181-200) (peptide, UniProt P41807 181-200, looked up)
peptide: DTCYVCIRLLQELAVIPEYR-cellulose
modifications: cysteine pairing not given here; reading uncertain
notes: as for B1
Turning to B11, in assay [5], the binding result was “binds”.

B12: a(681-700) (peptide, UniProt P32563 681-700, looked up)
peptide: EAQQLISAMDADDAEEEEVG-cellulose
modifications: reading uncertain
notes: as for B1
Turning to B12, in assay [3], the binding result was “binds”.

B13: D(181-200) (peptide, UniProt P32610 181-200, looked up)
peptide: TENTIAYINSELDELDREEF-cellulose
modifications: reading uncertain
notes: as for B1
As to B13, the binding result in assay [3] was “binds”.

B14: H(271-290) (peptide, UniProt P41807 271-290, looked up)
peptide: FLDLLKLVKITIKEKVSRLC-cellulose
modifications: reading uncertain
notes: as for B1
With B14, the binding result in assay [2] and in assay [4] was “binds” each time.

B15: B(421) (peptide, UniProt P16140 421-440, looked up)
peptide: GEEALSIEDKLSLEFLEKFE-cellulose
modifications: reading uncertain
notes: V-ATPase subunit B, S. cerevisiae; source: synthetic peptide, spotted on glass slide array (Intavis)
Turning to B15, the binding result in assay [3] is given as “binds”.

B16: G(71-90) (peptide, UniProt P48836 71-90, looked up)
peptide: KAEAGVQGELAEIKKIAEKK-cellulose
modifications: reading uncertain
notes: V-ATPase subunit G (Vma10p), S. cerevisiae, residues 71-90; source: synthetic peptide, spotted on glass slide array (Intavis)
Turning to B16, the binding result in assay [2] and in assay [3] was “binds” throughout.

B17: F(41-60) (peptide, UniProt P39111 41-60, looked up)
peptide: QEGKTTKEEITDKFNHFTEE-cellulose
modifications: reading uncertain
notes: V-ATPase subunit F, S. cerevisiae, residues 41-60; source: synthetic peptide, spotted on glass slide array (Intavis)
As for B17, the binding result in assay [2] and in assay [3] was “binds” each time.

B18: a(521-540) (peptide, UniProt P32563 521-540, looked up)
peptide: AWHGTENALLFSNSYKMKLS-cellulose
modifications: reading uncertain
notes: as for B1
As for B18, the binding result in assay [1] is “binds”.

B19: d(131-150) (peptide, UniProt P32366 131-150, looked up)
peptide: GWFDTLPTLSVATDLESLYE-cellulose
modifications: reading uncertain
notes: as for B1
As for B19, the binding result in assay [2] and in assay [3] was “binds” throughout.

B20: d(181-200) (peptide, UniProt P32366 181-200, looked up)
peptide: RNKLYKAYLEDFYNFVTEEI-cellulose
modifications: reading uncertain
notes: as for B1
For B20, the binding result in assay [3] was “binds”.

B21: E(51-70) (peptide, UniProt P22203 51-70, looked up)
peptide: VRNETNNIDGNFKSKLKKAM-cellulose
modifications: reading uncertain
notes: V-ATPase subunit E (Vma4p), S. cerevisiae, residues 51-70; source: synthetic peptide, spotted on glass slide array (Intavis)
For B21, the binding result in assay [5] was “binds”.

B22: B(349-368) (peptide, UniProt P16140 349-368, looked up)
peptide: LTGYITEGQIFVDRQLHNKG-cellulose
modifications: reading uncertain
notes: as for B1
In the case of B22, the binding result in assay [2] and in assay [4] was “binds” in each case.

B23: a(151-170) (peptide, UniProt P32563 151-170, looked up)
peptide: FFLKGDNTDSTSYMDEDMID-cellulose
modifications: reading uncertain
notes: as for B1
For the molecule B23, the binding result in assay [3] is given as “binds”.

B24: H(91-110) (peptide, UniProt P41807 91-110, looked up)
peptide: DCKKSVQNLIAELLSSDKYG-cellulose
modifications: reading uncertain
notes: V-ATPase subunit H (Vma13p), S. cerevisiae, residues 91-110; source: synthetic peptide, spotted on glass slide array (Intavis)
With B24, the binding result in assay [5] was “binds”.

B25: H(331) (peptide, UniProt P41807 331-350, looked up)
peptide: SDEELRQDISNLKEILENEY-cellulose
modifications: reading uncertain
notes: V-ATPase subunit H (Vma13p), S. cerevisiae; source: synthetic peptide, spotted on glass slide array (Intavis)
Consider B25, for which the binding result in assay [3] is on record as “binds”.

B26: a(51-70) (peptide, UniProt P32563 51-70, looked up)
peptide: FQRTFVNEIRRLDNVERQYR-cellulose
modifications: reading uncertain
notes: V-ATPase Vo subunit a (gene Vph1), S. cerevisiae, residues 51-70; source: synthetic peptide, spotted on glass slide array (Intavis)
For B26, the binding result in assay [1] and in assay [2] was “binds” each time.
